We go through 3 molecules from patent US20150110788A1 (GALAXY BIOTECH, published 2015).

Test [1] has as its target T1, FGF2 (UniProt P09038 143-288, limits assumed).
T1 construct: also called basic FGF; basic fibroblast growth factor
The test can be described thus: ELISA binding curves, FIG. 6B. How it is done: (§1) Heparin (50 μg/ml) was bound to ELISA plates overnight and used to capture either VEGF or FGF2 (0.2 μg/ml) overnight, followed by 2% BSA for blocking.
(In general: ELISA stands for enzyme-linked immunosorbent assay.)

Test [2] addresses T2, VEGF (UniProt P15692-4 27-191, limits assumed).
T2 construct: also called vascular endothelial growth factor; VEGF-A
The test can be described thus: bridging ELISA: VEGF captured on heparin-coated plate, antibody, then Flag-FGF2 and HRP-anti-Flag M2; signal needs binding to both VEGF and Flag-FGF2. How it is done:
(§2) Heparin (50 μg/ml) was bound to an ELISA plate overnight and used to capture VEGF (0.2 μg/ml) overnight, followed by 2% BSA for blocking. […] In principle, this assay should only detect bispecific antibody, because any detectable antibody must bind both to the VEGF on the plate in order to be captured and to Flag-FGF2 in solution in order to be detected.

The target of test [3] is T2, VEGF. Briefly: ELISA: VEGF captured on heparin-coated plate, detected with HRP-goat-anti-human-IgG-Fc. How it is done: as §1
The target in test [4] is T1, FGF2. Briefly: ELISA: FGF2 captured on heparin-coated plate, detected with HRP-goat-anti-human-IgG-Fc. How it is done: as §1
A further test concerns the target T3, Flag-FGF2 (UniProt P09038 135-288, limits assumed).
T3 construct: Soluble detection reagent in the bridging ELISA; also called Flag peptide linked to FGF2; not shown: Flag peptide
Briefly: bridging ELISA: VEGF captured on heparin-coated plate, antibody, then Flag-FGF2 and HRP-anti-Flag M2; signal needs binding to both VEGF and Flag-FGF2. How it is done:
as §2

T1 sequence (P09038 143-288 limits assumed): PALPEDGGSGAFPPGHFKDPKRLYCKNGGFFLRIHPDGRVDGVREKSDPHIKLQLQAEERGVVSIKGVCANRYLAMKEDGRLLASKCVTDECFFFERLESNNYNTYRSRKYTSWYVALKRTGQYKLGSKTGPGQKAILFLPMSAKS
T2 sequence (P15692 other isoform, or with tags, fused parts or gaps limits assumed): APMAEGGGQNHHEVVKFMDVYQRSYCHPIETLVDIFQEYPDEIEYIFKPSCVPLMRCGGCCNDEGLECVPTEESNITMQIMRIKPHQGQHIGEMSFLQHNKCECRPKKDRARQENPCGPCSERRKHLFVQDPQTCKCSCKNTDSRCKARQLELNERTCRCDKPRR
T3 sequence (P09038 135-288 limits assumed): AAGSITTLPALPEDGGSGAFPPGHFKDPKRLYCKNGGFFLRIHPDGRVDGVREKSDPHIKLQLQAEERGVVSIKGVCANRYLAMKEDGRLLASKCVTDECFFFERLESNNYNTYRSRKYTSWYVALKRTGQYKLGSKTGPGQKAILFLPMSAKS

B1: HuGAL-F2 (antibody, V domains shown)
VH: EVQLVQSGAEVKKPGSSVKVSCKASGYTFTNYVINWVRQAPGQGLEWIGYNDPYNDVSKYNEKFKGRATITSDKSTSTAYMELSSLRSEDTAVYYCAKEGGGKYVYAMDSWGQGTTVTVSS
VL: DIQMTQSPSSLSASVGDRVTITCKASQSVSSDVGWYQQKPGKAPKLLIYSGSNRYSGVPSRFSGSGSGTDFTLTISSLQPEDFATYYCQQDYYSPWTFGQGTKVEIK
notes: also called humanized GAL-F2
As to B1, the binding result is recorded as “binds” with FGF2 [1] and “no binding (tested: 1 µg/ml)” with VEGF [2].

B2: X-Ava/F2 (bispecific antibody, human IgG1, kappa)
light 1: DIQMTQSPSSLSASVGDRVTITCKASQSVSSDVGWYQQKPGKAPKLLIYSGSNRYSGVPSRFSGSGSGTDFTLTISSLQPEDFATYYCQQDYYSPWTFGQGTKVEIKRTVAAPSVFIFPPSDEQLKSGTASVVCLLNNFYPREAKVQWKVDNALQSGNSQESVTEQDSKDSTYSLSSTLTLSKADYEKHKVYACEVTHQGLSSPVTKSFNRGEC
heavy 1: not shown
light 2: DIQMTQSPSSLSASVGDRVTITCSASQDISNYLNWYQQKPGKAPKVLIYFTSSLHSGVPSRFSGSGSGTDFTLTISSLQPEDFATYYCQQYSTVPWTFGQGTKVEIKSSASTKGPSVFPLAPSSKSTSGGTAALGCLVKDYFPEPVTVSWNSGALTSGVHTFPAVLQSSGLYSLSSVVTVPSSSLGTQTYICNVNHKPSNTKVDKRVEPKSC
heavy 2: not shown
notes: also called bispecific antibody X-Ava/F2; X-Ava/F2 mAb
Consider B2, for which the “fold difference of EC50 against Avastin®” value in the test with VEGF [3] was at most 2 fold. In addition, in the test with FGF2 [4], the “fold difference of EC50 against HuGAL-F2” value is at most 4 fold.

B3: Avastin® (bevacizumab) (antibody, V domains shown)
VH: EVQLVESGGGLVQPGGSLRLSCAASGYTFTNYGMNWVRQAPGKGLEWVGWINTYTGEPTYAADFKRRFTFSLDTSKSTAYLQMNSLRAEDTAVYYCAKYPHYYGSSHWYFDVWGQGTLVTVSS
VL: DIQMTQSPSSLSASVGDRVTITCSASQDISNYLNWYQQKPGKAPKVLIYFTSSLHSGVPSRFSGSGSGTDFTLTISSLQPEDFATYYCQQYSTVPWTFGQGTKVEIKR
notes: Humanized anti-VEGF mAb, bivalent; also called Fab-12; F(ab)-12
On to B3, for which the binding result with Flag-FGF2 is reported as “no binding (tested: 1 µg/ml)”.
